Two molecules from paper PMC7515719, “The crystal structure of human XPG, the xeroderma pigmentosum group G endonuclease, provides insight into nucleotide excision DNA repair” can be followed below.

One data set deals with T1, XPGn1 D812A (Homo sapiens, UniProt P28715 1-112+=GT+750-990, D812A;internal_change).
T1 sequence: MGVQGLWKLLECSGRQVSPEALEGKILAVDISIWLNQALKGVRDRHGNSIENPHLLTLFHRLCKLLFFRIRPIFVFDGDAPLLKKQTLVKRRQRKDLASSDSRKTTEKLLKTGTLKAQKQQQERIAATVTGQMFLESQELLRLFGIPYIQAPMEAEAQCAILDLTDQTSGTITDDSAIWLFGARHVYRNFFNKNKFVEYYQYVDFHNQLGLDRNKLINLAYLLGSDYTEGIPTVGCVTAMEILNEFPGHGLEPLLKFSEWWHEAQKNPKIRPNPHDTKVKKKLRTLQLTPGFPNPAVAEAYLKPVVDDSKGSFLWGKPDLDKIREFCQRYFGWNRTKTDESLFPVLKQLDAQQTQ
The data set can be described thus: crystal structure; C1, space group I422, one complex per ASU; EMSA: 2.5 uM DNA, 1-8 uM protein, buffer H (composition not in material) + 15% glycerol, 25 C, 30 min, 7% native PAGE; crystals: complex in 20 mM Tris pH 7.5, 100 mM KCl, grown in 5% PEG 3350, 50 mM sodium citrate pH 4.0, 22 C. Conditions: protein: recombinant; tags: N-terminal His-3C cleaved, leaves Gly-Pro-His before Met1; fork: 10 bp duplex, 1 nt 5' arm (strand 1), 1 nt 3' arm (strand 2). On the technique in general: Mobility shift assays separate free from complexed probe on a gel.

The target of the next data set is T2, XPGn3 K913A (Homo sapiens, UniProt P28715 2-112+=GT+750-990, K913A;internal_change).
T2 sequence: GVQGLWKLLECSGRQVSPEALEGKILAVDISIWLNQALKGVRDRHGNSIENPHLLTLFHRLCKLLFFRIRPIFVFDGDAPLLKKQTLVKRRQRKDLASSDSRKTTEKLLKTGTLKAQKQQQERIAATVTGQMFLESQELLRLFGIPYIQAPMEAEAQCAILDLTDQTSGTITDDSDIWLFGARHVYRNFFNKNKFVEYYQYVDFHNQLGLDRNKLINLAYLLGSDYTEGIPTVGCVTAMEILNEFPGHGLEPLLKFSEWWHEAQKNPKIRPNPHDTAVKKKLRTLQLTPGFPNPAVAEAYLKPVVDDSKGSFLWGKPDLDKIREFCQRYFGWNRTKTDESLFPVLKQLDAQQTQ
The data set can be described thus: EMSA; minimal or null effect; EMSA: 2.5 uM DNA, 1-8 uM protein, buffer H (composition not in material) + 15% glycerol, 25 C, 30 min, 7% native PAGE; crystals: complex in 20 mM Tris pH 7.5, 100 mM KCl, grown in 5% PEG 3350, 50 mM sodium citrate pH 4.0, 22 C. Conditions: protein: recombinant; tags: N-terminal His-TEV cleaved; fork: 12 bp duplex, 4 nt 5' arm (strand 1), 5 nt 3' arm (strand 2).

The target of a further data set is T3, XPGn3 K917E (Homo sapiens, UniProt P28715 2-112+=GT+750-990, K917E;internal_change).
T3 sequence: T2 sequence with A277K, K281E
The description is as above. Conditions: protein: recombinant; tags: N-terminal His-TEV cleaved; fork: 12 bp duplex, 4 nt 5' arm (strand 1), 5 nt 3' arm (strand 2).

For the next data set, the target named is T4, XPGn3 K916A (Homo sapiens, UniProt P28715 2-112+=GT+750-990, K916A;internal_change).
T4 sequence: T2 sequence with A277K, K280A
Described as above. Conditions: protein: recombinant; tags: N-terminal His-TEV cleaved; fork: 12 bp duplex, 4 nt 5' arm (strand 1), 5 nt 3' arm (strand 2).

The target of the next data set is T5, XPGn3 D812A (Homo sapiens, UniProt P28715 2-112+=GT+750-990, D812A;internal_change).
T5 sequence: T2 sequence with D176A, A277K
The data set can be described thus: EMSA; no influence on binding; EMSA: 2.5 uM DNA, 1-8 uM protein, buffer H (composition not in material) + 15% glycerol, 25 C, 30 min, 7% native PAGE; crystals: complex in 20 mM Tris pH 7.5, 100 mM KCl, grown in 5% PEG 3350, 50 mM sodium citrate pH 4.0, 22 C. Conditions: protein: recombinant; tags: N-terminal His-TEV cleaved; fork: 12 bp duplex, 4 nt 5' arm (strand 1), 5 nt 3' arm (strand 2).

Another data set addresses T6, XPGn3 K972E (Homo sapiens, UniProt P28715 2-112+=GT+750-990, K972E;internal_change).
T6 sequence: T2 sequence with A277K, K336E
Kind of data set: EMSA; only cleavage mildly lowered; EMSA: 2.5 uM DNA, 1-8 uM protein, buffer H (composition not in material) + 15% glycerol, 25 C, 30 min, 7% native PAGE; crystals: complex in 20 mM Tris pH 7.5, 100 mM KCl, grown in 5% PEG 3350, 50 mM sodium citrate pH 4.0, 22 C. Conditions: protein: recombinant; tags: N-terminal His-TEV cleaved; fork: 12 bp duplex, 4 nt 5' arm (strand 1), 5 nt 3' arm (strand 2).

For a further data set, the target named is T7, XPGn3 K828E (Homo sapiens, UniProt P28715 2-112+=GT+750-990, K828E;internal_change).
T7 sequence: T2 sequence with K192E, A277K
Described as above. Conditions: protein: recombinant; tags: N-terminal His-TEV cleaved; fork: 12 bp duplex, 4 nt 5' arm (strand 1), 5 nt 3' arm (strand 2).

A further data set has as its target T8, XPGn3 R823A (Homo sapiens, UniProt P28715 2-112+=GT+750-990, R823A;internal_change).
T8 sequence: T2 sequence with R187A, A277K
Kind of data set: EMSA; value from '~10% reduction'; EMSA: 2.5 uM DNA, 1-8 uM protein, buffer H (composition not in material) + 15% glycerol, 25 C, 30 min, 7% native PAGE; crystals: complex in 20 mM Tris pH 7.5, 100 mM KCl, grown in 5% PEG 3350, 50 mM sodium citrate pH 4.0, 22 C. Conditions: protein: recombinant; tags: N-terminal His-TEV cleaved; fork: 12 bp duplex, 4 nt 5' arm (strand 1), 5 nt 3' arm (strand 2).

Positions count from the first letter of the chain named.

B1: DNA-1 splayed-arm (dsDNA)
DNA 1: TTGCAGAGTTC
DNA 2: GAACTCTGCAG
B1: the binding result in the data set with XPGn1 D812A is “binds”.

B2: DNA-2 splayed-arm (dsDNA)
DNA 1: TACTTGCAGAGTTCGC
DNA 2: GCGAACTCTGCAGAGCA
With B2, the binding result with XPGn3 K913A, with XPGn3 K917E, with XPGn3 K916A, with XPGn3 D812A, with XPGn3 K972E and in the data set with XPGn3 K828E was “binds” each time. Besides, the binding signal with XPGn3 R823A is ~90 % of wild-type binding.
